According to the supplement of paper PMC10567573:

B1: TRIM43 (parent)
chain: RAQMIRNEYRKLHPVLHKEEKQHL
B2: TRIM39 (parent)
chain: CKACITRWWEDLERDFPCPVCRKT

Variants of: B1
Assay: protein stability index of a GFP-peptide fusion (GPS, HEK-293T) (PSI 1-6); higher = more stable
Conditions: c terminus: a fixed tail appended
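Also: lentivirally expressed fusions sorted by FACS into six bins by GFP to DsRed ratio, PSI derived from sequencing read proportions per bin multiplied by bin number.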

Row | Variant | protein stability index
1 | RAQMIRNEYRKLHPVLHKEEKHHL [Q22H] | 2.91
2 | RAQMIRNEYRKLHPVLHKEEKGHL [Q22G] | 2.34
3 | RAQMIRNEYRKLHPVLHKEEKSHL [Q22S] | 3.3
4 | RAQMIRNEYRKLHPVLHKEEKMHL [Q22M] | 2.3
5 | RAQMIRNEYRKLHPVLHKEEKIHL [Q22I] | 2.54
6 | RAQMIRNEYRKLHPVLHKEEKCHL [Q22C] | 2.54
7 | RAQMIRNEYRKLHPVLHKEEKNHL [Q22N] | 3.07
8 | RAQMIRNEYRKLHPVLHKEEKQFL [H23F] | 2.58
9 | RAQMIRNEYRKLHPVLHKEEKQYL [H23Y] | 2.74
10 | RAQMIRNEYRKLHPVLHKEEKQLL [H23L] | 3.18
11 | RAQMIRNEYRKLHPVLHKEEKQPL [H23P] | 3.09
12 | RAQMIRNEYRKLHPVLHKEEKQVL [H23V] | 3.17
13 | RAQMIRNEYRKLHPVLHKEEKQQL [H23Q] | 3.35
14 | RAQMIRNEYRKLHPVLHKEEKQAL [H23A] | 3.08
15 | RAQMIRNEYRKLHPVLHKEEKQEL [H23E] | 3.81
16 | RAQMIRNEYRKLHPVLHKEEKQTL [H23T] | 3.23
17 | RAQMIRNEYRKLHPVLHKEEKQNL [H23N] | 3.13
18 | RAQMIRNEYRKLHPVLHKEEKQKL [H23K] | 3.33
19 | RAQMIRNEYRKLHPVLHKEEKQSL [H23S] | 3.45
20 | RAQMIRNEYRKLHPVLHKEEKQDL [H23D] | 4.45
21 | RAQMIRNEYRKLHPVLHKEEKQGL [H23G] | 3.63
22 | RAQMIRNEYRKLHPVLHKEEKQIL [H23I] | 2.46
23 | RAQMIRNEYRKLHPVLHKEEKQRL [H23R] | 2.94
24 | RAQMIRNEYRKLHPVLHKEEKQML [H23M] | 3.39
25 | RAQMIRNEYRKLHPVLHKEEKQCL [H23C] | 3.51
26 | RAQMIRNEYRKLHPVLHKEEKQWL [H23W] | 2.61

Variants of: B2
Assay: as above
Conditions: c terminus: a fixed tail appended

Row | Variant | protein stability index
27 | CTACITRWWEDLERDFPCPVCRKT [K2T] | 4.05
28 | CHACITRWWEDLERDFPCPVCRKT [K2H] | 4.08
29 | CWACITRWWEDLERDFPCPVCRKT [K2W] | 3.23
30 | CLACITRWWEDLERDFPCPVCRKT [K2L] | 3.58
31 | CDACITRWWEDLERDFPCPVCRKT [K2D] | 4.5
32 | CEACITRWWEDLERDFPCPVCRKT [K2E] | 4.48
33 | CVACITRWWEDLERDFPCPVCRKT [K2V] | 3.53
34 | CFACITRWWEDLERDFPCPVCRKT [K2F] | 3.34
35 | CMACITRWWEDLERDFPCPVCRKT [K2M] | 3.69
36 | CRACITRWWEDLERDFPCPVCRKT [K2R] | 4.02
37 | CIACITRWWEDLERDFPCPVCRKT [K2I] | 3.25
38 | CSACITRWWEDLERDFPCPVCRKT [K2S] | 4.59
39 | CQACITRWWEDLERDFPCPVCRKT [K2Q] | 4.08
40 | CNACITRWWEDLERDFPCPVCRKT [K2N] | 4.4
41 | CAACITRWWEDLERDFPCPVCRKT [K2A] | 4.08
42 | CPACITRWWEDLERDFPCPVCRKT [K2P] | 4.11
43 | CYACITRWWEDLERDFPCPVCRKT [K2Y] | 4.23
44 | CGACITRWWEDLERDFPCPVCRKT [K2G] | 3.59
45 | CCACITRWWEDLERDFPCPVCRKT [K2C] | 3.64
46 | TKACITRWWEDLERDFPCPVCRKT [C1T] | 2.06
47 | VKACITRWWEDLERDFPCPVCRKT [C1V] | 2.27
48 | SKACITRWWEDLERDFPCPVCRKT [C1S] | 1.68
49 | MKACITRWWEDLERDFPCPVCRKT [C1M] | 2.26

Row | Variant | protein stability index
50 | DKACITRWWEDLERDFPCPVCRKT [C1D] | 2.45
51 | QKACITRWWEDLERDFPCPVCRKT [C1Q] | 2.3
52 | WKACITRWWEDLERDFPCPVCRKT [C1W] | 2.56
53 | NKACITRWWEDLERDFPCPVCRKT [C1N] | 1.67
54 | LKACITRWWEDLERDFPCPVCRKT [C1L] | 2.31
55 | RKACITRWWEDLERDFPCPVCRKT [C1R] | 2.43
56 | FKACITRWWEDLERDFPCPVCRKT [C1F] | 1.42
57 | PKACITRWWEDLERDFPCPVCRKT [C1P] | 2.42
58 | AKACITRWWEDLERDFPCPVCRKT [C1A] | 1.94
59 | GKACITRWWEDLERDFPCPVCRKT [C1G] | 1.74
60 | YKACITRWWEDLERDFPCPVCRKT [C1Y] | 1.72
61 | KKACITRWWEDLERDFPCPVCRKT [C1K] | 1.76
62 | EKACITRWWEDLERDFPCPVCRKT [C1E] | 2.07
63 | IKACITRWWEDLERDFPCPVCRKT [C1I] | 1.27
64 | HKACITRWWEDLERDFPCPVCRKT [C1H] | 2.16
65 | CKFCITRWWEDLERDFPCPVCRKT [A3F] | 3.17
66 | CKMCITRWWEDLERDFPCPVCRKT [A3M] | 3.35
67 | CKVCITRWWEDLERDFPCPVCRKT [A3V] | 4.17
68 | CKICITRWWEDLERDFPCPVCRKT [A3I] | 3.9
69 | CKWCITRWWEDLERDFPCPVCRKT [A3W] | 2.87
70 | CKSCITRWWEDLERDFPCPVCRKT [A3S] | 4.21
71 | CKECITRWWEDLERDFPCPVCRKT [A3E] | 4.12
72 | CKKCITRWWEDLERDFPCPVCRKT [A3K] | 3.06

Row | Variant | protein stability index
73 | CKTCITRWWEDLERDFPCPVCRKT [A3T] | 4.85
74 | CKNCITRWWEDLERDFPCPVCRKT [A3N] | 4.16
75 | CKGCITRWWEDLERDFPCPVCRKT [A3G] | 4.09
76 | CKLCITRWWEDLERDFPCPVCRKT [A3L] | 3.8
77 | CKDCITRWWEDLERDFPCPVCRKT [A3D] | 4.04
78 | CKYCITRWWEDLERDFPCPVCRKT [A3Y] | 3.9
79 | CKHCITRWWEDLERDFPCPVCRKT [A3H] | 3.67
80 | CKRCITRWWEDLERDFPCPVCRKT [A3R] | 3.53
81 | CKCCITRWWEDLERDFPCPVCRKT [A3C] | 3.57
82 | CKPCITRWWEDLERDFPCPVCRKT [A3P] | 2.48
83 | CKQCITRWWEDLERDFPCPVCRKT [A3Q] | 4.06
84 | CKAMITRWWEDLERDFPCPVCRKT [C4M] | 1.9
85 | CKAGITRWWEDLERDFPCPVCRKT [C4G] | 1.65
86 | CKANITRWWEDLERDFPCPVCRKT [C4N] | 2.35
87 | CKADITRWWEDLERDFPCPVCRKT [C4D] | 1.75
88 | CKAHITRWWEDLERDFPCPVCRKT [C4H] | 3.14
89 | CKAAITRWWEDLERDFPCPVCRKT [C4A] | 1.72
90 | CKAEITRWWEDLERDFPCPVCRKT [C4E] | 1.88
91 | CKALITRWWEDLERDFPCPVCRKT [C4L] | 1.63
92 | CKAIITRWWEDLERDFPCPVCRKT [C4I] | 1.59
93 | CKAFITRWWEDLERDFPCPVCRKT [C4F] | 2.45
94 | CKAKITRWWEDLERDFPCPVCRKT [C4K] | 2.05
